Numbering of substitutions follows the chain as printed.
T1: human H7CR (B7-H7 counter-receptor) (human, UniProt Q96BF3 23-282)
T1 construct: Used for H7CR on CHO.hH7CR transfectants, human T cells and tonsil tissue; also called B7-H7CR; CD28H
T1 sequence: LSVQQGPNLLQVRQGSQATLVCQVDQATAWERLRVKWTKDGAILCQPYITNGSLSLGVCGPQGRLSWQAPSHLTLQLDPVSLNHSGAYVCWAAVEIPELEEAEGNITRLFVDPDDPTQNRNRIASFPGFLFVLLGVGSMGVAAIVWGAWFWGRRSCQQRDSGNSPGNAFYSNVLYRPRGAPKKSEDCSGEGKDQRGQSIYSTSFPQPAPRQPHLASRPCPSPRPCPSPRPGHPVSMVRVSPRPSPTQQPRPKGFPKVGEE

T2: H7CR-GFP fusion protein on transfected CHO cells (Homo sapiens (Human), UniProt Q96BF3 23-282)
T2 construct: not shown: GFP part
T2 sequence: T1 sequence

B1: 4.5 humanized variant 13 (HC1-3 / LC1-1) (antibody, V domains shown)
VH: QVQLQESGPGLVKPSQTLSLTCTVSGFSITTGGYYWNWIRQFPGKKLEWMGYIYTSGRTSYNPSLKSRVTISRDTSKNQFSLKLSSVTAADTAVYYCADMADKGGWFAYWGQGTLVTVSS
VL: DIVMTQSPDSLAVSLGERATINCKSSQSLFSSNTKRNYLAWYQQKPGQPPKLLIYHASTRESGVPDRFSGSGSGTDFTLTISSLQAEDVAVYYCQQHYETPLTFGQGTRLEIK
notes: Variable domains only; detected with anti-hIg secondary; also called VH1C / VL1A
B2: 4.5 humanized variant 26 (HC2-2 / LC1-2) (antibody, V domains shown)
VH: QITLKESGPTLVKPTQTLTLTCTVSGFSITTGGYYWNWIRQPPGKKLEWLALIYTSGRTSYNPSLKSRLTITKDTSKNQVVLTMTNMDPVDTATYYCADMADKGGWFAYWGQGTLVTVSS
VL: B1 VL with A40N, E61L, V91D, Y93F, Q106D
notes: Variable domains only; detected with anti-hIg secondary; also called VH2B / VL1B
B3: 4.5 humanized variant 19 (HC2-1 / LC1-1) (antibody, V domains shown)
VH: B2 VH with V24F, W36V, N37G, K46A, S60R, N62S
VL: B1 VL
notes: Variable domains only; detected with anti-hIg secondary; also called VH2A / VL1A
B4: 4.5 humanized variant 14 (HC1-3 / LC1-2) (antibody, V domains shown)
VH: B1 VH
VL: B1 VL with A40N, E61L, V91D, Y93F, Q106D
notes: Variable domains only; detected with anti-hIg secondary; also called VH1C / VL1B
B5: 4.5 humanized variant 17 (HC1-3 / LC2-2) (antibody, V domains shown)
VH: B1 VH
VL: DIVMTQTPLSLPVTPGEPASISCRSSQSLFSSNTKRNYLNWYLQKPGQSPKLLIYHASTRLSGVPDRFSGSGSGTDFTLKISRVEAEDVGDYFCQQHYETPLTFGDGTRLEIK
notes: Variable domains only; detected with anti-hIg secondary; also called VH1C / VL2B
B6: 4.5 humanized variant 20 (HC2-1 / LC1-2) (antibody, V domains shown)
VH: B2 VH with V24F, W36V, N37G, K46A, S60R, N62S
VL: B1 VL with A40N, E61L, V91D, Y93F, Q106D
notes: Variable domains only; detected with anti-hIg secondary; also called VH2A / VL1B
B7: 4.5 humanized variant 15 (HC1-3 / LC1-3) (antibody, V domains shown)
VH: B1 VH
VL: B1 VL with K24L, A40N, P49S, E61L, V91D, Y93F, Q106D
notes: Variable domains only; detected with anti-hIg secondary; also called VH1C / VL1C
B8: 4.5 humanized variant 21 (HC2-1 / LC1-3) (antibody, V domains shown)
VH: B2 VH with V24F, W36V, N37G, K46A, S60R, N62S
VL: B1 VL with K24L, A40N, P49S, E61L, V91D, Y93F, Q106D
notes: Variable domains only; detected with anti-hIg secondary; also called VH2A / VL1C
B9: 4.5 humanized variant 27 (HC2-2 / LC1-3) (antibody, V domains shown)
VH: B2 VH
VL: B1 VL with K24L, A40N, P49S, E61L, V91D, Y93F, Q106D
notes: Variable domains only; detected with anti-hIg secondary; also called VH2B / VL1C
B10: 4.5 humanized variant 12 (HC1-2 / LC2-3) (antibody, V domains shown)
VH: B1 VH with F42H, M50I
VL: B5 VL with L9S, R24L
notes: Variable domains only; detected with anti-hIg secondary; also called VH1B / VL2C
B11: 4.5 humanized variant 16 (HC1-3 / LC2-1) (antibody, V domains shown)
VH: B1 VH
VL: B5 VL with N40D, K51Q, T59Y, L61A, D91V, F93Y, D106Q
notes: Variable domains only; detected with anti-hIg secondary; also called VH1C / VL2A
B12: 4.5 humanized variant 18 (HC1-3 / LC2-3) (antibody, V domains shown)
VH: B1 VH
VL: B5 VL with L9S, R24L
notes: Variable domains only; detected with anti-hIg secondary; also called VH1C / VL2C
B13: 4.5 humanized variant 25 (HC2-2 / LC1-1) (antibody, V domains shown)
VH: B2 VH
VL: B1 VL
notes: Variable domains only; detected with anti-hIg secondary; also called VH2B / VL1A
B14: 4.5 humanized variant 22 (HC2-1 / LC2-1) (antibody, V domains shown)
VH: B2 VH with V24F, W36V, N37G, K46A, S60R, N62S
VL: B5 VL with N40D, K51Q, T59Y, L61A, D91V, F93Y, D106Q
notes: Variable domains only; detected with anti-hIg secondary; also called VH2A / VL2A
B15: 4.5 humanized variant 24 (HC2-1 / LC2-3) (antibody, V domains shown)
VH: B2 VH with V24F, W36V, N37G, K46A, S60R, N62S
VL: B5 VL with L9S, R24L
notes: Variable domains only; detected with anti-hIg secondary; also called VH2A / VL2C
B16: 4.5 humanized variant 28 (HC2-2 / LC2-1) (antibody, V domains shown)
VH: B2 VH
VL: B5 VL with N40D, K51Q, T59Y, L61A, D91V, F93Y, D106Q
notes: Variable domains only; detected with anti-hIg secondary; also called VH2B / VL2A
B17: 4.5 humanized variant 23 (HC2-1 / LC2-2) (antibody, V domains shown)
VH: B2 VH with V24F, W36V, N37G, K46A, S60R, N62S
VL: B5 VL
notes: Variable domains only; detected with anti-hIg secondary; also called VH2A / VL2B

Key:
[1] = target: T1, human H7CR (B7-H7 counter-receptor); assay: binding to human H7CR as endogenously expressed on the surface of a cell
[2] = target: T2, H7CR-GFP fusion protein on transfected …; assay: flow cytometry, 5 µg/ml variant on H7CR-GFP transfected CHO cells, anti-hIg PE secondary antibody [row HC1-3, column LC1-1]
Method: (§1) 5 μg/ml antibodies from thirty-six variants were incubated with H7CR-GFP fusion protein transfected CHO cells for 30 min at room temperature. Cells were then washed twice with 2 ml flow cytometry buffer, and resuspended in 100 μl flow cytometry buffer. 1 μl anti-hIg PE secondary antibody (Biolegend) was added and incubated with the cells for 15 mins Samples were then washed and resuspended in 100 μl flow cytometry buffer. Flow Cytometry data was acquired using BD Canto (BD Biosciences) in plate format and analyzed by FlowJo software.

[3] = target: T2, H7CR-GFP fusion protein on transfected …; assay: flow cytometry, 5 µg/ml variant on H7CR-GFP transfected CHO cells, anti-hIg PE secondary antibody [row HC2-2, column LC1-2]
Method: as §1

[4] = target: T2, H7CR-GFP fusion protein on transfected …; assay: flow cytometry, 5 µg/ml variant on H7CR-GFP transfected CHO cells, anti-hIg PE secondary antibody [row HC2-1, column LC1-1]
Method: as §1

[5] = target: T2, H7CR-GFP fusion protein on transfected …; assay: flow cytometry, 5 µg/ml variant on H7CR-GFP transfected CHO cells, anti-hIg PE secondary antibody [row HC1-3, column LC1-2]
Method: as §1

[6] = target: T2, H7CR-GFP fusion protein on transfected …; assay: flow cytometry, 5 µg/ml variant on H7CR-GFP transfected CHO cells, anti-hIg PE secondary antibody [row HC1-3, column LC2-2]
Method: as §1

[7] = target: T2, H7CR-GFP fusion protein on transfected …; assay: flow cytometry, 5 µg/ml variant on H7CR-GFP transfected CHO cells, anti-hIg PE secondary antibody [row HC2-1, column LC1-2]
Method: as §1

[8] = target: T2, H7CR-GFP fusion protein on transfected …; assay: flow cytometry, 5 µg/ml variant on H7CR-GFP transfected CHO cells, anti-hIg PE secondary antibody [row HC1-3, column LC1-3]
Method: as §1

[9] = target: T2, H7CR-GFP fusion protein on transfected …; assay: flow cytometry, 5 µg/ml variant on H7CR-GFP transfected CHO cells, anti-hIg PE secondary antibody [row HC2-1, column LC1-3]
Method: as §1

[10] = target: T2, H7CR-GFP fusion protein on transfected …; assay: flow cytometry, 5 µg/ml variant on H7CR-GFP transfected CHO cells, anti-hIg PE secondary antibody [row HC2-2, column LC1-3]
Method: as §1

[11] = target: T2, H7CR-GFP fusion protein on transfected …; assay: flow cytometry, 5 µg/ml variant on H7CR-GFP transfected CHO cells, anti-hIg PE secondary antibody [row HC1-2, column LC2-3]
Method: as §1

[12] = target: T2, H7CR-GFP fusion protein on transfected …; assay: flow cytometry, 5 µg/ml variant on H7CR-GFP transfected CHO cells, anti-hIg PE secondary antibody [row HC1-3, column LC2-1]
Method: as §1

[13] = target: T2, H7CR-GFP fusion protein on transfected …; assay: flow cytometry, 5 µg/ml variant on H7CR-GFP transfected CHO cells, anti-hIg PE secondary antibody [row HC1-3, column LC2-3]
Method: as §1

[14] = target: T2, H7CR-GFP fusion protein on transfected …; assay: flow cytometry, 5 µg/ml variant on H7CR-GFP transfected CHO cells, anti-hIg PE secondary antibody [row HC2-2, column LC1-1]
Method: as §1

[15] = target: T2, H7CR-GFP fusion protein on transfected …; assay: flow cytometry, 5 µg/ml variant on H7CR-GFP transfected CHO cells, anti-hIg PE secondary antibody [row HC2-1, column LC2-1]
Method: as §1

[16] = target: T2, H7CR-GFP fusion protein on transfected …; assay: flow cytometry, 5 µg/ml variant on H7CR-GFP transfected CHO cells, anti-hIg PE secondary antibody [row HC2-1, column LC2-3]
Method: as §1

[17] = target: T2, H7CR-GFP fusion protein on transfected …; assay: flow cytometry, 5 µg/ml variant on H7CR-GFP transfected CHO cells, anti-hIg PE secondary antibody [row HC2-2, column LC2-1]
Method: as §1

[18] = target: T2, H7CR-GFP fusion protein on transfected …; assay: flow cytometry, 5 µg/ml variant on H7CR-GFP transfected CHO cells, anti-hIg PE secondary antibody [row HC2-1, column LC2-2]
Method: as §1

Row | Binder | binding result [1] | also measured
1 | B1 | binds | binding result [2]: binds
2 | B2 | binds | binding result [3]: binds
3 | B3 | binds | binding result [4]: binds
4 | B4 | binds | binding result [5]: binds
5 | B5 | binds | binding result [6]: binds
6 | B6 | binds | binding result [7]: binds
7 | B7 | binds | binding result [8]: binds
8 | B8 | binds | binding result [9]: binds
9 | B9 | binds | binding result [10]: binds
10 | B10 | binds | binding result [11]: binds
11 | B11 | binds | binding result [12]: binds
12 | B12 | binds | binding result [13]: binds
13 | B13 | binds | binding result [14]: binds
14 | B14 | binds | binding result [15]: binds
15 | B15 | binds | binding result [16]: binds
16 | B16 | binds | binding result [17]: binds
17 | B17 | binds | binding result [18]: binds

Reference: patent US20160024210A1 (AstraZeneca / MedImmune, published 2016)
